Where no end group is shown, it is not given here. [ ]: non-standard residue; d: D form. Hyp = O=C(O)[C@@H]1C[C@@H](O)CN1
Key:
[1] = system: α-fetoprotein (“AFP”) receptor; settings: MCF-7 human breast cancer cells; cited from earlier work
[2] = Cross-sectional diameter of the conjugated polymer; type: physicochemical; settings: highly conjugated
[3] = Relaxivity of the contrast agent (effect on T1 relaxation of water protons); type: physicochemical; settings: for relaxivity: globular vs elongated conformation
Excerpt: When the carrier molecule is in an elongated conformation, the chelator entity, which provides the MR activity, is free to rotate about its attachment point to the main chain, allowing a […] T1 relaxation time of the surrounding water protons, which are the source of the MR signal. When the carrier molecule is in a globular or highly folded conformation, the paramagnetic ions on the chelator entities tumble at a slower rate (along with the entire molecule). […] A low relaxivity or long relaxation time is associated with an elongated molecule such as a highly substituted Gd-DTPA-PLL, in which the Gd can rotate rapidly, having a relaxivity of about 8 sec^−1 mM^−1. When the relaxivity of a peptide contrast agent was high, the uptake coefficient of such an agent was invariably low, evidently due to the absence of a reptation movement of the contrast agent molecule, resulting in the exclusion of the contrast agent from narrow passages. Thus, it is important to establish that the peptides being compared for optimum length are all of the same conformation.

Substance | bind to α-fetoprotein (“AFP”) receptor [1] | cross-sectional diameter [2] | relaxivity [3] | relaxivity in bulk water ([3]; highly conjugated (degree of conjugation about 90 percent or higher)) [mM⁻¹ s⁻¹]
EMTOVNOG (EMT[Hyp]VN[Hyp]G) [linear octapeptide; O represents 4-hydroxyproline] | bind |  |  | 
EMTOVNOGQ (EMT[Hyp]VN[Hyp]GQ; also: cyclic, mode not given here) [cyclic peptide; O represents 4-hydroxyproline] | bind |  |  | 
Gd-DTPA-PLL |  | about 25 angstroms | about 8 sec^−1 mM^−1 | 6.8 to 7.8
albumin |  |  | about 15 sec^−1 mM^−1 | 
